Results published in patent US20100221262A1.

Columns and labels:
[1] = biological target: human Unc5B-His (two N-terminal Ig-like domains of Unc5B, amino acid M1 to amino acid V243, C-terminal Histidine tag) (human) (UniProt Q8IZJ1); assay: SPR (ProteOn XPR36), antibody immobilised, human Unc5B-His as analyte
Murine Unc5B (mouse) = Murine Unc5B (mouse) (UniProt Q8K1S3); assay: SPR (ProteOn XPR36), antibody immobilised, murine Unc5B-His as analyte
Murine Unc5B (mouse), sequence (Q8K1S3 27-243 limits assumed, form in doubt): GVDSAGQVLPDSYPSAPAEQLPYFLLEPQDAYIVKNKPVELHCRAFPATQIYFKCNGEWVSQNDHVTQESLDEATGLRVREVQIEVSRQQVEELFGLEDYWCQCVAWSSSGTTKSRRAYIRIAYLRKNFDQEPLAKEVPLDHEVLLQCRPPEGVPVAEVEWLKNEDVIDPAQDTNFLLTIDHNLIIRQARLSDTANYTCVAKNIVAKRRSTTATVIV

Row | Binder | Kd [1] [nM] | Kd (Murine Unc5B (mouse)) [nM]
1 | YW 88.7 (antibody, part only; not given: constant regions, part only) heavy chain, part: EVQLVESGGGLVQPGGSLRLSCAASGFTFSDNWISWVRQAPKGLEWVGGIYPAGGYTYYADSVKGRFTISADTSKNTAYLQMSLRAEDTAVYYCAHDIHTRIAVMDYWGQGTLVTVSS light chain: DIQMTQSPSSLSASVGDRVTITCRASQDVSTAVAWYQQKPGKAPKLLIYSASFLYSGVPSRFSGSGSGTDFTLTISSLQPEDFATYYCQQSYTTPPTFGQGTKVEIKR | 20 | 1.1
2 | YW 83.7 (antibody, part only; not given: constant regions, part only) heavy chain, part: EVQLVESGGGLVQPGGSLRLSCAASGFTFTGSSIHWVRQAPKGLEWVGWITPNGGYTNYADSVKGRFTISADTSKNTAYLQMSLRAEDTAVYYCARQSWVLRGWAMDYWGQGTLVTVSS light chain: DIQMTQSPSSLSASVGDRVTITCRASQDVSTAVAWYQQKPGKAPKLLIYSASFLYSGVPSRFSGSGSGTDFTLTISSLQPEDFATYYCQQSYTTPPTFGQGTKVEIKR | 4.1 | 
3 | YW 83.4 (antibody, part only; not given: constant regions, part only) heavy chain, part: EVQLVESGGGLVQPGGSLRLSCAASGFTFTNYDIHWVRQAPKGLEWVGWISPSGGYTNYADSVKGRFTISADTSKNTAYLQMSLRAEDTAVYYCARQLWAVRGWVMDYWGQGTLVTVSS light chain: DIQMTQSPSSLSASVGDRVTITCRASQDVSTAVAWYQQKPGKAPKLLIYSASFLYSGVPSRFSGSGSGTDFTLTISSLQPEDFATYYCQQSYTTPPTFGQGTKVEIKR | 2.9 | 
4 | YW 88.64 (antibody, part only; not given: constant regions, part only) heavy chain, part: EVQLVESGGGLVQPGGSLRLSCAASGFTFSNSGISWVRQAPKGLEWVGYIYPDNGSTNYADSVKGRFTISADTSKNTAYLQMSLRAEDTAVYYCARGVWWFDYWGQGTLVTVSS light chain: DIQMTQSPSSLSASVGDRVTITCRASQDVSTAVAWYQQKPGKAPKLLIYSASFLYSGVPSRFSGSGSGTDFTLTISSLQPEDFATYYCQQSYTTPPTFGQGTKVEIKR | 84 | 
